Experimental data taken from PMC12775996.

Tests used:
[1] = target: adenovirus type 5 vector particles (wild-type capsid) (human adenovirus type 5); assay: SPR; MP-SPR 220A, CMD 2D sensor, viruses amine-coupled, 22°C; PF4 at 7 μg/mL (900 nM) in pure PBS without passivating agents, 600 s injection, then flush
[2] = target: human platelet factor 4 (human)
human platelet factor 4 = assay: ELISA-qPCR; settings: PF4-coated wells; N = 6, two independent repeats; bar labelled Ad5-ΔfX; parent: est. 1.7e5; read off a plot

Substance: human platelet factor 4 (natural protein)
- Kd [1]: 1.05 µM

Substance: adenovirus type 5 vector particles (wild-type capsid), P06496 1-107
- VP uptake in A549 cells (internalized Ad genomes by qPCR, 3 hpi, 20 vpc) after incubation with 10 μg/mL PF4 [2]: 3 fold

Substance: adenovirus type 11 vector particles (complex)
- VP uptake in A549 cells (internalized Ad genomes by qPCR, 3 hpi, 20 vpc) after incubation with 10 μg/mL PF4 [2]: 1.6 fold

Substance: adenovirus type 13 vector particles (complex)
- VP uptake in A549 cells (internalized Ad genomes by qPCR, 3 hpi, 20 vpc) after incubation with 10 μg/mL PF4 [2]: 1.6 fold

Substance: adenovirus type 5 vector particles (wild-type capsid) (from UniProt P06496) T425A
- response (number of bound VPs) (human platelet factor 4): 290000

Substance: adenovirus type 69 vector particles (complex)
- VP uptake in A549 cells (internalized Ad genomes by qPCR, 3 hpi, 20 vpc) after incubation with 10 μg/mL PF4 [2]: 3 fold
